According to the supplement of paper PMC10126150:
± gives the standard deviation of the averaged measurements.

test system: ATP; assay: switch fluorescence ratio, 500 uM ATP over buffer (Cy3 cluster intensity, sum of 5 cycles each) (fold (ratio)); higher = stronger signal-on switching upon ATP binding; sequences stand for … in TCGTCGGCAGCGTCAGATGTGTATAAGAGACAGTTTTTTTTTTTTTTTTTTTTTTTTT…TC; details: aptamer strand: ATP DNA aptamer (quencher-CACCTGGGGGAGTATTGCGGAGGAAGG + anchor), 100 nM annealed; ATP concentration: 500 uM
How it was run: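 The quencher-labelled ATP aptamer, at 100 nM, was annealed to Cy3-labelled switching-strand clusters on a modified Illumina MiSeq flow-cell. The clusters were imaged in selection buffer, then after 15 min with 500 uM ATP at 22 °C, and this buffer/ATP cycle ran five times with NaOH stripping and re-annealing between runs. Per-cluster fluorescence ratios, summed target-cycle over summed buffer-cycle Cy3 intensity, were averaged per switch-domain sequence. Clusters outside 100-1000 RFU were excluded.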
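Also: ATP exposure 15 min at 22 °C before imaging.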

Sequence | switch fluorescence ratio
AGGGGAGGAC | 1.03 ± 0.02
AGGGGAGGCA | 1.02 ± 0.089
AGGGGAGTGG | 0.992 ± 0.038
AGGGGAGTTA | 1.02 ± 0.051
AGGGGATAGG | 0.98 ± 0.046
AGGGGATAGT | 0.9659 ± 0.0091
AGGGGATGAA | 1.04 ± 0.027
AGGGGATGTG | 0.97 ± 0.048
AGGGGATTC | 1.002 ± 0.0075
AGGGGCAAAC | 1.45 ± 0.078
AGGGGCCCGC | 0.98 ± 0.018
AGGGGCTGGG | 0.99 ± 0.017
AGGGGCTGGT | 0.997 ± 0.026
AGGGGCTTCG | 1.04 ± 0.015
AGGGGCTTCT | 1.06 ± 0.028
AGGGGCTTTA | 1.14 ± 0.2
AGGGGGACGT | 0.998 ± 0.024
AGGGGGAGAT | 1.02 ± 0.042
AGGGGGAGGT | 0.975 ± 0.017
AGGGGGATTG | 0.987 ± 0.03
AGGGGGCAAT | 1.11 ± 0.18
AGGGGGCCAG | 1 ± 0.019
AGGGGGCGGG | 1.03 ± 0.035
AGGGGGCGGT | 0.959 ± 0.033
AGGGGGGAAT | 1.03 ± 0.048
AGGGGGGACA | 1.02 ± 0.084

Sequence | switch fluorescence ratio
AGGGGGGAGC | 1.01 ± 0.029
AGGGGGGCCG | 1.08 ± 0.019
AGGGGGGCTT | 1.01 ± 0.054
AGGGGGGGAT | 0.982 ± 0.029
AGGGGGGGCG | 0.975 ± 0.05
AGGGGGGGT | 1.05 ± 0.077
AGGGGGTAGT | 0.983 ± 0.011
AGGGGGTATG | 0.983 ± 0.014
AGGGGGTATT | 1.01 ± 0.024
AGGGGGTCAG | 0.986 ± 0.027
AGGGGGTT | 1 ± 0.077
AGGGGGTTGT | 0.995 ± 0.026
AGGGGGTTTA | 0.999 ± 0.031
AGGGGGTTTT | 1 ± 0.036
AGGGGTACGT | 0.982 ± 0.011
AGGGGTACTT | 1 ± 0.049
AGGGGTAGTT | 1.01 ± 0.029
AGGGGTATT | 1 ± 0.014
AGGGGTATTA | 1.002 ± 0.01
AGGGGTGATA | 1.023 ± 0.0047
AGGGGTGCCA | 0.9529 ± 0.0048
AGGGGTTACG | 0.981 ± 0.044
AGGGGTTATG | 1 ± 0.021
AGGGGTTGGT | 0.983 ± 0.027
AGGGGTTTGC | 0.957 ± 0.021
AGGGTAAAAG | 1.03 ± 0.024

Sequence | switch fluorescence ratio
AGGGTAACGA | 0.999 ± 0.035
AGGGTACTGT | 1.05 ± 0.092
AGGGTAGTGC | 0.9869 ± 0.0091
AGGGTATTAG | 0.995 ± 0.025
AGGGTATTCG | 0.9981 ± 0.0049
AGGGTCAACG | 1.018 ± 0.0099
AGGGTCAATG | 0.983 ± 0.013
AGGGTCAGTG | 1.02 ± 0.062
AGGGTCGGAT | 0.972 ± 0.033
AGGGTCTGTA | 0.939 ± 0.015
AGGGTCTGTT | 0.978 ± 0.012
AGGGTGGAAA | 1.02 ± 0.019
AGGGTGGGGT | 0.977 ± 0.043
AGGGTGTGAC | 1.01 ± 0.036
AGGGTTAGGT | 1.003 ± 0.0028
AGGGTTGACA | 0.981 ± 0.046
AGGGTTGACT | 0.964 ± 0.012
AGGGTTTCCA | 1.01 ± 0.06
AGGGTTTGGA | 1 ± 0.02
AGGGTTTTAT | 1.003 ± 0.0048
AGGTAAAGTT | 0.972 ± 0.014
AGGTAAGTAG | 1.01 ± 0.031
AGGTACAGGG | 1.01 ± 0.041
AGGTACGGGG | 0.971 ± 0.012
AGGTAGAGTG | 0.948 ± 0.038
